From article PMC4363072

Target: GST-BS69_(50-401) FW point mutant (F293A, W294A) (human) (UniProt Q15326)
Experiment: MST

Chain of GST-BS69_(50-401) FW point mutant (F293A, W294A) (human) (Q15326 50-401 F293A/W294A): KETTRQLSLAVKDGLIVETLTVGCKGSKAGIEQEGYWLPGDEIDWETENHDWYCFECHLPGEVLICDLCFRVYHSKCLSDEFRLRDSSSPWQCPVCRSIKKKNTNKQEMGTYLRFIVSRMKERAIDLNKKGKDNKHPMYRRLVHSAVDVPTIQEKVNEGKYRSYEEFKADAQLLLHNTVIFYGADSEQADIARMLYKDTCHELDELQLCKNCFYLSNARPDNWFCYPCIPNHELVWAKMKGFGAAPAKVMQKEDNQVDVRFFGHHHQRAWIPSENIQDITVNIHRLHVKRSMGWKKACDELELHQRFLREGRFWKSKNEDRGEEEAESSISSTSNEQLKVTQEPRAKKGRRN

H3.3K36me3 peptide was tested. Which Kd did it give?
Its Kd is 277 µM.
